Test [1] deals with T1, Human C3 (human, UniProt P01024 23-1663). Briefly: cell-based or functional assay.
Test [2] addresses T1, Human C3. Put plainly: SPR, C3 immobilised. As to the method:
Surface plasmon resonance (SPR) was used to characterize peptides with respect to their binding affinity (Kd) for C3. Human C3 (Complement tech cat #A1 13c) was immobilised on individual flow cells of CM5 sensor chips (GE Healthcare) using standard amine coupling to a density of approximately 3000 resonance units (RU) in a buffer consisting of 10 mM phosphate pH 7.4, 150 mM NaCl, 0.05% Tween20.
For interaction experiments a multi-cycle experiment approach was used and performed using either a Biacore™ T200 or Biacore™ X100 instrument (GE Healthcare) at 25° C. Peptides were injected in increasing concentration series (5-8 different concentrations) for 60-120 s at a flow rate of 30 μL/min in a buffer consisting of 10 mM Tris buffer at pH 7.4, with 150 mM NaCl and 0.05% Tween20. This was followed by a dissociation period for up to 10 min. The C3 surface was regenerated between runs by a 45 s injection of 3 M MgCl₂.
Sensorgrams were double-referenced (reference surface, blanks) prior to analysis of the kinetic profiles by globally fitting data to a 1:1 Langmuir binding model to obtain association and dissociation rates for calculation of the equilibrium dissociation constant Kd. Each peptide was tested at in at least 2 independent experiments.
(In general: SPR reads the build-up and loss of mass on a sensor chip optically.)

For test [3], the target named is T1, Human C3. Put plainly: cell-based or functional assay. This is another data set of the same source.

Read-outs that look alike come from different tables or passages of the source. Starred links: 1 amine or outer side, 2 acyl side, 3 side chain; linkers in the order of their positions; H or OH if unused. Positions of bridges follow the written chain, without caps; N, C: chain ends. Non-standard residues stand in square brackets, D forms with d. Groups on a side chain read outwards from the residue. *: point of attachment. Trp(1-Me) = Cn1cc(C[C@H](N)C(=O)O)c2ccccc21; C18 diacid = O=C(O)CCCCCCCCCCCCCCCCC(=O)*; C16 diacid = O=C(O)CCCCCCCCCCCCCCC(=O)*; γGlu = O=C(O)[C@H](CCC(=O)[*:2])N[*:1]; AEEA = NCCOCCOCC(=O)O; Sar = CNCC(=O)O Where only a bound is given, the exact number is not on record here.

Usually Kd stands for the free concentration of one partner at which half of the binding sites on the other are occupied at equilibrium, for simple one-to-one binding. Higher therefore signals lower affinity.

T1 sequence (P01024 23-1663 limits assumed): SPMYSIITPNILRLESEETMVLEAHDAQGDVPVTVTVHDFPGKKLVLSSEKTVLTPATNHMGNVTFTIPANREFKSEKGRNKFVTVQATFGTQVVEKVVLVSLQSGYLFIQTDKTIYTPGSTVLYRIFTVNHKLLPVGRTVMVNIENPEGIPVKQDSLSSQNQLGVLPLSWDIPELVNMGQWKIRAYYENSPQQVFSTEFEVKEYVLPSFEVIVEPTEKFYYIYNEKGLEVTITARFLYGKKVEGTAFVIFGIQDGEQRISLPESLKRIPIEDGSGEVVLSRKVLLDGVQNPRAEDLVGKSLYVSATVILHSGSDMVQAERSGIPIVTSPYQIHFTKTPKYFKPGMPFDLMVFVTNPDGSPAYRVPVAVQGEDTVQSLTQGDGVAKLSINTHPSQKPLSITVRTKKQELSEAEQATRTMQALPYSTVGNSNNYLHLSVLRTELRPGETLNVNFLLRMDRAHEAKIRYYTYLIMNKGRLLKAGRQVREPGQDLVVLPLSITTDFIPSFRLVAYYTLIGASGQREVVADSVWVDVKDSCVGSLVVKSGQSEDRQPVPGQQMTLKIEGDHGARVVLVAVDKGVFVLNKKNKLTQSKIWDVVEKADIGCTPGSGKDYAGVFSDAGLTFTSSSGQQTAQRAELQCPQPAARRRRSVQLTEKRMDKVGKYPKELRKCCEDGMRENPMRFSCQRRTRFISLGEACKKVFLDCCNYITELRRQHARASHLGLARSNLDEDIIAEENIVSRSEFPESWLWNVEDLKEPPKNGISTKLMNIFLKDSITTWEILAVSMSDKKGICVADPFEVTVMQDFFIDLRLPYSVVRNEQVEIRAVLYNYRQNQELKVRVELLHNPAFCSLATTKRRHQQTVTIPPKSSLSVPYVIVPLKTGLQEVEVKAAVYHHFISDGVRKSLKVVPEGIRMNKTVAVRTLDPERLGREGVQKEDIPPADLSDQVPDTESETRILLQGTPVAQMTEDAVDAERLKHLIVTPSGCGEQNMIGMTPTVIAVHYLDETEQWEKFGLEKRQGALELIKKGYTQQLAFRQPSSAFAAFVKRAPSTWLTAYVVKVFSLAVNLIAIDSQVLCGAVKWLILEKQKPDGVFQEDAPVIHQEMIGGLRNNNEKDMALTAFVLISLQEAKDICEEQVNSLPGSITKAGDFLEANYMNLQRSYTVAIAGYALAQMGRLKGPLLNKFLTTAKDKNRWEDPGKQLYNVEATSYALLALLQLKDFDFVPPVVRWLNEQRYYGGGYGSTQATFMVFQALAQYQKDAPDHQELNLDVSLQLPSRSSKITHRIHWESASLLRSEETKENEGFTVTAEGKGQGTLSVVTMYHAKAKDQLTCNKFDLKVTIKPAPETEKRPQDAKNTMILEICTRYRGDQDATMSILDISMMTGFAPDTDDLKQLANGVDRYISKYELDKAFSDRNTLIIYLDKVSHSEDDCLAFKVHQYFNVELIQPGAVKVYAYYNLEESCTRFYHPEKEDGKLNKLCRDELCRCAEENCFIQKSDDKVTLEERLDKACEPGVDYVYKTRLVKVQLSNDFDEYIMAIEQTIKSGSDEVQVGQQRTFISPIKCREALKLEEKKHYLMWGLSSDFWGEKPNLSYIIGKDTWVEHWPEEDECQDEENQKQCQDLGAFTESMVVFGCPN

B1: Compound 102 (peptide)
peptide: Ac-FCI[Trp(1-Me)]QDWGEHRCTGAESK([AEEA-AEEA-γGlu-C16 diacid])-NH2
modifications: disulfide 2-12
SMILES: CC[C@H](C)[C@@H]1NC(=O)[C@@H](NC(=O)[C@H](Cc2ccccc2)NC(C)=O)CSSC[C@@H](C(=O)N[C@H](C(=O)NCC(=O)N[C@@H](C)C(=O)N[C@@H](CCC(=O)O)C(=O)N[C@@H](CO)C(=O)N[C@@H](CCCCNC(=O)COCCOCCNC(=O)COCCOCCNC(=O)CC[C@H](NC(=O)CCCCCCCCCCCCCCC(=O)O)C(=O)O)C(N)=O)[C@@H](C)O)NC(=O)[C@H](CCCNC(=N)N)NC(=O)[C@H](Cc2c[nH]cn2)NC(=O)[C@H](CCC(=O)O)NC(=O)CNC(=O)[C@H](Cc2c[nH]c3ccccc23)NC(=O)[C@H](CC(=O)O)NC(=O)[C@H](CCC(N)=O)NC(=O)[C@H](Cc2cn(C)c3ccccc23)NC1=O
For the molecule B1, the “IC50[nM], inhibition of hemolysis” value in test [1] was below 100 nM. The molecule further gave a Kd in test [2] of 0.0017 µM.

B2: Compound 87 (peptide)
peptide: Ac-GEFCI[Trp(1-Me)]QDWGEHRC[Sar]EA-NH2
modifications: disulfide 4-14
SMILES: CC[C@H](C)[C@@H]1NC(=O)[C@@H](NC(=O)[C@H](Cc2ccccc2)NC(=O)[C@H](CCC(=O)O)NC(=O)CNC(C)=O)CSSC[C@@H](C(=O)N(C)CC(=O)N[C@@H](CCC(=O)O)C(=O)N[C@@H](C)C(N)=O)NC(=O)[C@H](CCCNC(=N)N)NC(=O)[C@H](Cc2c[nH]cn2)NC(=O)[C@H](CCC(=O)O)NC(=O)CNC(=O)[C@H](Cc2c[nH]c3ccccc23)NC(=O)[C@H](CC(=O)O)NC(=O)[C@H](CCC(N)=O)NC(=O)[C@H](Cc2cn(C)c3ccccc23)NC1=O
In test [3], B2 returned an IC50[nM], inhibition of hemolysis below 100 nM.

B3: Compound 104 (peptide)
peptide: Ac-EGSAYCI[Trp(1-Me)]QDWGEHRC[Sar]EGK([AEEA-AEEA-γGlu-C16 diacid])-NH2
modifications: disulfide 6-16
SMILES: CC[C@H](C)[C@@H]1NC(=O)[C@@H](NC(=O)[C@H](Cc2ccc(O)cc2)NC(=O)[C@H](C)NC(=O)[C@H](CO)NC(=O)CNC(=O)[C@H](CCC(=O)O)NC(C)=O)CSSC[C@@H](C(=O)N(C)CC(=O)N[C@@H](CCC(=O)O)C(=O)NCC(=O)N[C@@H](CCCCNC(=O)COCCOCCNC(=O)COCCOCCNC(=O)CC[C@H](NC(=O)CCCCCCCCCCCCCCC(=O)O)C(=O)O)C(N)=O)NC(=O)[C@H](CCCNC(=N)N)NC(=O)[C@H](Cc2c[nH]cn2)NC(=O)[C@H](CCC(=O)O)NC(=O)CNC(=O)[C@H](Cc2c[nH]c3ccccc23)NC(=O)[C@H](CC(=O)O)NC(=O)[C@H](CCC(N)=O)NC(=O)[C@H](Cc2cn(C)c3ccccc23)NC1=O
As to B3, in test [1], the “IC50[nM], inhibition of hemolysis” value is below 100 nM. In test [2], this molecule showed a Kd of 0.034 µM.

B4: Compound 111 (peptide)
peptide: Ac-EGSAYCI[Trp(1-Me)]QDWGEHRC[Sar]EK[γGlu]K([AEEA-AEEA-γGlu-C18 diacid])-NH2
modifications: disulfide 6-16
SMILES: CC[C@H](C)[C@@H]1NC(=O)[C@@H](NC(=O)[C@H](Cc2ccc(O)cc2)NC(=O)[C@H](C)NC(=O)[C@H](CO)NC(=O)CNC(=O)[C@H](CCC(=O)O)NC(C)=O)CSSC[C@@H](C(=O)N(C)CC(=O)N[C@@H](CCC(=O)O)C(=O)N[C@@H](CCCCN)C(=O)N[C@@H](CCC(=O)N[C@@H](CCCCNC(=O)COCCOCCNC(=O)COCCOCCNC(=O)CC[C@H](NC(=O)CCCCCCCCCCCCCCCCC(=O)O)C(=O)O)C(N)=O)C(=O)O)NC(=O)[C@H](CCCNC(=N)N)NC(=O)[C@H](Cc2c[nH]cn2)NC(=O)[C@H](CCC(=O)O)NC(=O)CNC(=O)[C@H](Cc2c[nH]c3ccccc23)NC(=O)[C@H](CC(=O)O)NC(=O)[C@H](CCC(N)=O)NC(=O)[C@H](Cc2cn(C)c3ccccc23)NC1=O
For B4, the “IC50[nM], inhibition of hemolysis” value in test [1] is below 100 nM. The molecule further gave a Kd in test [2] of 0.0082 µM.

B5: Compound 54 (peptide)
peptide: Ac-EGSAYCI[Trp(1-Me)]QDWGEHRC[Sar]E-NH2
modifications: disulfide 6-16
SMILES: CC[C@H](C)[C@@H]1NC(=O)[C@@H](NC(=O)[C@H](Cc2ccc(O)cc2)NC(=O)[C@H](C)NC(=O)[C@H](CO)NC(=O)CNC(=O)[C@H](CCC(=O)O)NC(C)=O)CSSC[C@@H](C(=O)N(C)CC(=O)N[C@@H](CCC(=O)O)C(N)=O)NC(=O)[C@H](CCCNC(=N)N)NC(=O)[C@H](Cc2c[nH]cn2)NC(=O)[C@H](CCC(=O)O)NC(=O)CNC(=O)[C@H](Cc2c[nH]c3ccccc23)NC(=O)[C@H](CC(=O)O)NC(=O)[C@H](CCC(N)=O)NC(=O)[C@H](Cc2cn(C)c3ccccc23)NC1=O
As to B5, the “IC50[nM], inhibition of hemolysis” value in test [1] was below 100 nM. The same molecule yielded an equilibrium dissociation constant (Kd) in test [2] of 0.003 µM.

B6: Compound 107 (peptide)
peptide: {C16 diacid}-EGSEYCI[Trp(1-Me)]QDWGEHRC[Sar]E-NH2
modifications: disulfide 6-16
SMILES: CC[C@H](C)[C@@H]1NC(=O)[C@@H](NC(=O)[C@H](Cc2ccc(O)cc2)NC(=O)[C@H](CCC(=O)O)NC(=O)[C@H](CO)NC(=O)CNC(=O)[C@H](CCC(=O)O)NC(=O)CCCCCCCCCCCCCCC(=O)O)CSSC[C@@H](C(=O)N(C)CC(=O)N[C@@H](CCC(=O)O)C(N)=O)NC(=O)[C@H](CCCNC(=N)N)NC(=O)[C@H](Cc2c[nH]cn2)NC(=O)[C@H](CCC(=O)O)NC(=O)CNC(=O)[C@H](Cc2c[nH]c3ccccc23)NC(=O)[C@H](CC(=O)O)NC(=O)[C@H](CCC(N)=O)NC(=O)[C@H](Cc2cn(C)c3ccccc23)NC1=O
Regarding B6, in test [1], the “IC50[nM], inhibition of hemolysis” value is below 100 nM. The Kd in test [2] worked out at 0.0061 µM.

Ac-SEYCI[Trp(1-Me)]QDWGEHRC[Sar]EGE[AEEA][AEEA]K([γGlu-Gly-γGlu-C18 diacid])-NH2 (disulfide 4-14) [Compound 117]: the “IC50[nM], inhibition of hemolysis” value in test [1] is below 250 nM. Moreover, binding in test [2] was characterised by a dissociation constant (Kd) of 0.024 µM.

B7: Compound 84 (peptide)
peptide: Ac-SEFCI[Trp(1-Me)]QDWGEHRCSEA-NH2
modifications: disulfide 4-14
SMILES: CC[C@H](C)[C@@H]1NC(=O)[C@@H](NC(=O)[C@H](Cc2ccccc2)NC(=O)[C@H](CCC(=O)O)NC(=O)[C@H](CO)NC(C)=O)CSSC[C@@H](C(=O)N[C@@H](CO)C(=O)N[C@@H](CCC(=O)O)C(=O)N[C@@H](C)C(N)=O)NC(=O)[C@H](CCCNC(=N)N)NC(=O)[C@H](Cc2c[nH]cn2)NC(=O)[C@H](CCC(=O)O)NC(=O)CNC(=O)[C@H](Cc2c[nH]c3ccccc23)NC(=O)[C@H](CC(=O)O)NC(=O)[C@H](CCC(N)=O)NC(=O)[C@H](Cc2cn(C)c3ccccc23)NC1=O
As to B7, the IC50[nM], inhibition of hemolysis in test [3] was below 100 nM.

For the origin of these results see patent US20220306695A1, “COMPSTATIN ANALOGUES AND THEIR MEDICAL USES” (priority 2019, published 2022).
